Results reported in the supplement of paper PMC10567573.

B1: MATN2 (parent)
chain: TDDSYSCHCLKGFTLNPDKKTCRR
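Further: lentivirally expressed fusions sorted by FACS into six bins by GFP to DsRed ratio, PSI derived from sequencing read proportions per bin multiplied by bin number.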

Variants of: B1
Assay: protein stability index of a GFP-peptide fusion (GPS, HEK-293T) (PSI 1-6); higher = more stable
Conditions: c terminus: a fixed tail appended
TDDSYSCHCLKGFTLNPDKPTCRR gave a protein stability index of 1.93. For TDDSYSCHCLKGFILNPDKKTCRR, the protein stability index was 2.02. Work on TDDSYSCHCLKGFYLNPDKKTCRR yielded a protein stability index of 1.6. In the case of TDDSYSCHCLKGFLLNPDKKTCRR, the protein stability index is reported as 2.01. TDDSYSCHCLKGFKLNPDKKTCRR showed a protein stability index of 2.16. Work on TDDSYSCHCLKGFPLNPDKKTCRR yielded a protein stability index of 1.79. In the case of TDDSYSCHCLKGFFLNPDKKTCRR, the protein stability index is reported as 1.32. In the case of TDDSYSCHCLKGFHLNPDKKTCRR, the protein stability index is reported as 2.36. TDDSYSCHCLKGFRLNPDKKTCRR gave a protein stability index of 2. In the case of TDDSYSCHCLKGFVLNPDKKTCRR, the protein stability index is reported as 3.45. With TDDSYSCHCLKGFSLNPDKKTCRR the protein stability index was 2.13. Variant TDDSYSCHCLKGFQLNPDKKTCRR has a protein stability index of 1.67. With TDDSYSCHCLKGFMLNPDKKTCRR the protein stability index was 1.64. TDDSYSCHCLKGFNLNPDKKTCRR gave a protein stability index of 2.68. Work on TDDSYSCHCLKGFGLNPDKKTCRR yielded a protein stability index of 2.24. TDDSYSCHCLKGFWLNPDKKTCRR gave a protein stability index of 2.69. For TDDSYSCHCLKGFDLNPDKKTCRR, the protein stability index was 2.14. With TDDSYSCHCLKGFELNPDKKTCRR the protein stability index was 2.23. With TDDSYSCHCLKGFCLNPDKKTCRR the protein stability index was 2.31. Work on TDDSYSCHCLKGFALNPDKKTCRR yielded a protein stability index of 2.69. In the case of TDDSYSCHCLKGFTLNPDKKTARR, the protein stability index is reported as 2. With TDDSYSCHCLKHFTLNPDKKTCRR the protein stability index was 2.91. TDDSYSCHCLKNFTLNPDKKTCRR gave a protein stability index of 2.24. TDDSYSCHCLKMFTLNPDKKTCRR gave a protein stability index of 1.9. TDDSYSCHCLKKFTLNPDKKTCRR gave a protein stability index of 2.41. Work on TDDSYSCHCLKSFTLNPDKKTCRR yielded a protein stability index of 2.1. TDDSYSCHCLKTFTLNPDKKTCRR gave a protein stability index of 2.39. With TDDSYSCHCLKIFTLNPDKKTCRR the protein stability index was 1.78. TDDSYSCHCLKRFTLNPDKKTCRR gave a protein stability index of 2.08. Work on TDDSYSCHCLKVFTLNPDKKTCRR yielded a protein stability index of 1.79. In the case of TDDSYSCHCLKPFTLNPDKKTCRR, the protein stability index is reported as 2.63. Work on TDDSYSCHCLKFFTLNPDKKTCRR yielded a protein stability index of 1.98. TDDSYSCHCLKYFTLNPDKKTCRR gave a protein stability index of 1.73. In the case of TDDSYSCHCLKEFTLNPDKKTCRR, the protein stability index is reported as 2.27. Work on TDDSYSCHCLKQFTLNPDKKTCRR yielded a protein stability index of 2.85. TDDSYSCHCLKWFTLNPDKKTCRR showed a protein stability index of 2.01. For TDDSYSCHCLKLFTLNPDKKTCRR, the protein stability index was 2.45. With TDDSYSCHCLKGFTLNYDKKTCRR the protein stability index was 2.26. For TDDSYSCHCLKGFTLNRDKKTCRR, the protein stability index was 2.35. With TDDSYSCHCLKGFTLNCDKKTCRR the protein stability index was 3.48. Variant TDDSYSCHCLKGFTLNNDKKTCRR has a protein stability index of 2.28. TDDSYSCHCLKGFTLNTDKKTCRR showed a protein stability index of 2.5. With TDDSYSCHCLKGFTLNLDKKTCRR the protein stability index was 2.02. In the case of TDDSYSCHCLKGFTLNEDKKTCRR, the protein stability index is reported as 2.77. With TDDSYSCHCLKGFTLNMDKKTCRR the protein stability index was 2.71. TDDSYSCHCLKGFTLNWDKKTCRR showed a protein stability index of 1.65. Variant TDDSYSCHCLKGFTLNGDKKTCRR has a protein stability index of 2.57. Work on TDDSYSCHCLKGFTLNIDKKTCRR yielded a protein stability index of 2.01. For TDDSYSCHCLKGFTLNSDKKTCRR, the protein stability index was 2.11. TDDSYSCHCLKGFTLNFDKKTCRR showed a protein stability index of 2.3. TDDSYSCHCLKGFTLNVDKKTCRR gave a protein stability index of 2.92. TDDSYSCHCLKGFTLNDDKKTCRR showed a protein stability index of 2.65. Variant TDDSYSCHCLKGFTLNADKKTCRR has a protein stability index of 2.25. Variant TDDSYSCHCLKGFTLNKDKKTCRR has a protein stability index of 2.63. For TDDSYSCHCLKGFTLNHDKKTCRR, the protein stability index was 2.42. In the case of TDDSYSCHCLKGFTLNQDKKTCRR, the protein stability index is reported as 2.14. In the case of TDDSYSCHCLKGFTLDPDKKTCRR, the protein stability index is reported as 2.17. TDDSYSCHCLKGFTLEPDKKTCRR showed a protein stability index of 2.06. In the case of TDDSYSCHCLKGFTLSPDKKTCRR, the protein stability index is reported as 2.24. Work on TDDSYSCHCLKGFTLPPDKKTCRR yielded a protein stability index of 2.85. Variant TDDSYSCHCLKGFTLTPDKKTCRR has a protein stability index of 1.91. In the case of TDDSYSCHCLKGFTLVPDKKTCRR, the protein stability index is reported as 2.56. TDDSYSCHCLKGFTLGPDKKTCRR gave a protein stability index of 2.23. TDDSYSCHCLKGFTLWPDKKTCRR gave a protein stability index of 1.6. With TDDSYSCHCLKGFTLFPDKKTCRR the protein stability index was 1.8. TDDSYSCHCLKGFTLMPDKKTCRR showed a protein stability index of 2.65. Variant TDDSYSCHCLKGFTLHPDKKTCRR has a protein stability index of 2.3. TDDSYSCHCLKGFTLYPDKKTCRR gave a protein stability index of 2.4. In the case of TDDSYSCHCLKGFTLQPDKKTCRR, the protein stability index is reported as 1.56. In the case of TDDSYSCHCLKGFTLCPDKKTCRR, the protein stability index is reported as 2.97. TDDSYSCHCLKGFTLRPDKKTCRR showed a protein stability index of 2.75. For TDDSYSCHCLKGFTLIPDKKTCRR, the protein stability index was 2.89. In the case of TDDSYSCHCLKGFTLLPDKKTCRR, the protein stability index is reported as 2.24. TDDSYSCHCLKGFTLKPDKKTCRR gave a protein stability index of 2.33. With TDDSYSCHCLKGFTLAPDKKTCRR the protein stability index was 2.68. For TDDSYSCHCLKGFTLNPDQKTCRR, the protein stability index was 2.41. TDDSYSCHCLKGFTLNPDIKTCRR showed a protein stability index of 2.01. With TDDSYSCHCLKGFTLNPDMKTCRR the protein stability index was 2.17. Work on TDDSYSCHCLKGFTLNPDVKTCRR yielded a protein stability index of 2.3. Work on TDDSYSCHCLKGFTLNPDGKTCRR yielded a protein stability index of 1.62. TDDSYSCHCLKGFTLNPDHKTCRR showed a protein stability index of 3.66. In the case of TDDSYSCHCLKGFTLNPDPKTCRR, the protein stability index is reported as 2.19. In the case of TDDSYSCHCLKGFTLNPDAKTCRR, the protein stability index is reported as 2.46. Work on TDDSYSCHCLKGFTLNPDDKTCRR yielded a protein stability index of 2.37. In the case of TDDSYSCHCLKGFTLNPDRKTCRR, the protein stability index is reported as 2.12. With TDDSYSCHCLKGFTLNPDCKTCRR the protein stability index was 4.92. Variant TDDSYSCHCLKGFTLNPDWKTCRR has a protein stability index of 1.16. Work on TDDSYSCHCLKGFTLNPDEKTCRR yielded a protein stability index of 2.3. Variant TDDSYSCHCLKGFTLNPDNKTCRR has a protein stability index of 2.2. In the case of TDDSYSCHCLKGFTLNPDLKTCRR, the protein stability index is reported as 2.21. Work on TDDSYSCHCLKGFTLNPDTKTCRR yielded a protein stability index of 2.06. TDDSYSCHCLKGFTLNPDYKTCRR gave a protein stability index of 2.25. Work on TDDSYSCHCLKGFTLNPDFKTCRR yielded a protein stability index of 1.61. With TDDSYSCHCLKGFTLNPDSKTCRR the protein stability index was 2.18.
